This assay is described as follows: Bioconversion of eugenol to vanillin: one-pot concurrent cascade EUGO + alkene cleavage oxygenase (5 mM scale). Type of assay: biochemical. The settings on record: Table 8b, EUGO FD-CFE 1 mg/mL, CO-0X FD-CFE 1 mg/mL, catalase 10 mg/mL, eugenol 5 mM. The protocol: Stock solutions of eugenol (100 mM) were prepared in ethanol or DMSO and stored at −20° C. Unless otherwise stated, the reaction mixtures (0.5 mL) were set up in 1.5 mL glass vials as follows: freeze-dried cell free extract of IECO/CO-XX (3 mg) and EUGO (0.5 mg) were dissolved in the reaction buffer (50 mM glycine-NaOH pH 9.0) containing sodium ascorbate (1 mM), FeSO4 (1 mM) and bovine liver catalase (5 mg, Sigma Aldrich C40). The reaction was initiated by the addition of 0.025 mL eugenol stock (final concentration 5 mM), then incubated at 30° C. and 120 rpm overnight (rotary shaker). The final content of cosolvent was 5% v/v. To improve oxygenation, the vials were placed horizontally. At certain time points, samples (0.2 mL) were quenched with methanol (0.4 mL) and the mixture was centrifuged at 20238 g for 5-10 mins. Finally, the supernatant was analysed by HPLC.
EUGO (0.5 mg CFE), CO-25 (3 mg CFE) and catalase (5 mg, Sigma product #C40) were dissolved in 50 mM Glycine-NaOH pH 9.0 or Tris-HCl pH 8.0 together with FeSO4 (1 mM) and sodium ascorbate (1 mM). Note that the buffer content of the freeze-dried biocatalyst prep was not considered for the assembling of the reaction. The reaction was started by the addition of 5 mM eugenol from a 20× stock in ethanol. The reactions—performed in glass vials—were then incubated at 30° C. and 120 rpm (25 mm shaker). Finally, samples of the reaction mixture were diluted with MeOH and analyzed by HPLC at 280 and 340 nm.

B1: CO-20: alkene cleavage oxygenase, Pseudomonas frederiksbergensis, SEQ ID NO: 120 (protein, listed as Pseudomonas frederiksbergensis)
chain: MTHPFPQTPEFSGALYAPSRVEAEVFDLEVEGTLPDSIRGAFYQVAPDPQYPPMLGNDIFFNGDGMVSAFNFADGKVSMRRRYVKTDRLMAQRREGRSLNGVYRNVFTNDPLAAKNNTTANTSVVAHNGVLLALKEDALPWAMDLETLETLGEWSFDGQIESATFTAHPKLDPVTGNLLAFSYEAKGDGTPDLAYFELSPDGKLLHQIWFQAPYAAMVHDFAVTEHYVVFPLIPLTVDVERMKNGGQHFQWQPDLPQLFAVVPRNGHAEDVRWFKGPKDGFQGHTLNAFDEDDKVYVDMPVTGGNIFYFFPQADGYVPPPETLAASLMRWTFDLTSTQDDIQPQPLTDYPCEFPRCDDRYIGRKYEHGFVLAFDPERPYNPANGPIPFQFFNLLARVNLKTGATDAWFPGDSGCFQEPIFIPRAPDAQEADGYVVALLNLIAEGRSELVVLDSRDMASGPIARIKVPFRLRMSLHGCWVPSKK
In the case of B1, for the setting “pH 8.0”, the “Product distribution after 24 hours 2a (%)” value stood at 59.4%, the “Product distribution after 24 hours 3a (%)” value is 23.6% and the “Product distribution after 24 hours 5a (%)” value turned out to be 17.0%. Besides, under “pH 9.0”, the “Product distribution after 24 hours 2a (%)” value is reported as 57.8%, the “Product distribution after 24 hours 3a (%)” value was 22.0% and the “Product distribution after 24 hours 5a (%)” value is 20.2%.

B2: CO-24: alkene cleavage oxygenase, Pseudomonas ogarae, SEQ ID NO: 132 (protein, listed as Pseudomonas ogarae)
chain: MSIPFPQTPEFSGVLYTPSRVEAEVFDLEIEGILPASICGTFYQVAPDPQYPPMLGNDIFFNGDGVVSRFNFANGKVSMRRRYVKTDRLLAQRREGRSLNGVYRNVYTNDPLAAKNNTTANTTVIPHNGVLLALKEDALPWALDLETLETLGEWTFDGQIKAATFTAHPKLDPVTGNLLACSYEAKGDGTPDLAYFEISPDGKLLHEIWFQAPYAAMVHDFAVTERYVVFPLIPLTVDVERMKNGGPHFQWQPDLPQLFAIVPRNGCGQDVRWFKGPKDGFQGHTLNAFDEDGKVYVDMPVTGGNIFYFFPQADGYVPPPETLAASLMRWTFDLNGAQEDVQPQPLTEYPCEFPRCDDRYIGRKYQHGFLLAFDPERPYNPANGPIPFQFFNLLAHLDLQTGRTDAWFPGDSGCFQEPIFIPRSADAEEADGYVVALLNLIAEGRSELVVLDTRDMASGPIARIRIPFRMRMSLHGCWAPND
Take B2: for the setting “pH 8.0”, the “Product distribution after 24 hours 2a (%)” value turned out to be 78.5%, the “Product distribution after 24 hours 3a (%)” value was 6.1% and the “Product distribution after 24 hours 5a (%)” value was determined as 15.4%. Under “pH 9.0”, the “Product distribution after 24 hours 2a (%)” value is reported as 73.9%, the “Product distribution after 24 hours 3a (%)” value is 5.6% and the “Product distribution after 24 hours 5a (%)” value worked out at 20.5%.

B3: CO-17: alkene cleavage oxygenase, Coniochaeta pulveracea, SEQ ID NO: 82 (protein, listed as Coniochaeta pulveracea)
chain: MAHIFDLAPEVSLPDEPIYKDGKLHRPNHVQFPQTPVFASMNKPSRFEGTILSLEHTGIIPPEINGTFFRVQPDHRFPPMFEDDIHFNGDGSVTAIRIFDGKVDFRQRYVHTERYKAETKARRSLFGRYRNPWTDNESVKGVIRTASNTNVFFWRGMLLATKEDGPPYAMDPVTLETYGRYDFEGQILSPTFTAHPKFDPRTGEMVCFAYETGGDGADCSREVMVWTLDKDGKKVSERWFEAPFAGMIHDCGLSENWLVLPLTPIKMDLERMKRGGNKFAWDPKEDQVYGLVPRRGDGEVKWFRGENAFHGHVAGCYENAQGHVVIDLTVADGNVFFWFPPDGEEQGQFAKRNKLSSPTHRWILDPSLPNNARITPALVWPTNGEFSRIDDRWTTRKYKHFWLAKVDPSRPYDFAKCGPPAGGLFNCLGHYTWDLDNELATGQEDVYFAGPTCTFQEPTFIPKGDKEGEGWLIALVNHLDVLRNDVVILDAQNLAKGPVCTIHLPLKLKLGLHGNWVDWRDIEDWTKRRQEDGEVGPVQVATEMLPWQKAFWEKEKEKNGNGVEGPNINGTNGANGTNGVNGSSH
With B3, where the note is “pH 8.0”, the “Product distribution after 24 hours 2a (%)” value came to 73.1%, the “Product distribution after 24 hours 3a (%)” value turned out to be 7.8% and the “Product distribution after 24 hours 5a (%)” value was found to be 19.1%. For the same molecule, where the note is “pH 9.0”, the “Product distribution after 24 hours 2a (%)” value was found to be 65.8%, the “Product distribution after 24 hours 3a (%)” value came to 11.8% and the “Product distribution after 24 hours 5a (%)” value is recorded as 22.5%.

B4: CO-22: alkene cleavage oxygenase, Pseudomonas kilonensis, SEQ ID NO: 128 (protein, listed as Pseudomonas kilonensis)
chain: MTIPFPQTSEFSGALYTPSRVEAELFDLEVEGTLPAEIRGAFYQVAPDPQYPPMLGTDIFFNGDGMVTGFYFANGKVSMRRRYVKTDRLMAQRREGRSLNGVYRNLYTNDPLAAKNNTTANTTVIPHNGVLLALKEDALPWAMDLETLETLGEWTFDGQIKAATFTAHPKRDPATGNLLAFSYEAKGDGTPDIAYFEISPDGKLLHEIWFQAPYAAMVHDFAVTERYVVFPLIPLTVDVERMKNGGPHFQWQPDLPQLFAVVPRNGNAQDVRWFKGPKDSFQGHTLNAFDEDGKVYVDMPVTGGNVFYFFPQADGYVPPPETLAASLMRWTFDLSSPQDEVEPQPLTEYPCEFPRCDDRYIGRKYQHGFLLAFDPERPYNPANGPIPFQFFNLLVHLNLKTGSTDAWFPGDSGCFQEPIFIPRSADAEEADGYVVALLNLIAEGRSELVVLDSRDMAGGPIARIRIPFRMRMSLHGCWAPSD
B4: where the note is “pH 8.0”, the “Product distribution after 24 hours 2a (%)” value was 69.4%, the “Product distribution after 24 hours 3a (%)” value is given as 15.0% and the “Product distribution after 24 hours 5a (%)” value came out at 15.6%. In addition, where the note is “pH 9.0”, the “Product distribution after 24 hours 2a (%)” value came to 63.2%, the “Product distribution after 24 hours 3a (%)” value is 16.8% and the “Product distribution after 24 hours 5a (%)” value was 20.0%.

B5: CO-23: alkene cleavage oxygenase, Pseudomonas viciae, SEQ ID NO: 130 (protein, listed as Pseudomonas viciae)
chain: MTIPFPQTPEFSGALYTPSRVEAEVFDLEIEGVLPASIGGTFYQVAPDPQYPPMLGNDIFFNGDGVVSRFNFANGKVSMRRRYVKTDRLLAQRREGRSLNGVYRNVYTNDRLAAKNNTTANTTVIPHNGVLLALKEDALPWAMDLDTLETLGEWTFDGQIKSATFTAHPKLDPVTGNLLACSYEAKGDGTPDLAYFEISPDGKLLHEIWFQAPYAAMVHDFAVTERYVVFPLIPLTVDVERMKNGGPHFQWQPDLPQLFAVVPRNGNAQDVRWFKGPKDGFQGHTLNAFDEDGKVYVDMPVTGGNIFYFFPQADGYVPPPETLAASLMRWTFDLNSALDEVEPQPLTDYPCEFPRCDDRYIGRKYQHGFLLAFDPERPYNPANGPIPFQFFNLLVHLNLKTGITDAWFPGDSGCFQEPIFIPRSADAEEADGYVVALLNLIAEGRSELVVLDSRDMASGPIARIRIPFRMRMSLHGCWTADPN
In the case of B5, for the setting “pH 8.0”, the “Product distribution after 24 hours 2a (%)” value stood at 69.0%, the “Product distribution after 24 hours 3a (%)” value worked out at 13.7% and the “Product distribution after 24 hours 5a (%)” value was determined as 17.3%. In addition, where the note is “pH 9.0”, the “Product distribution after 24 hours 2a (%)” value is given as 67.0%, the “Product distribution after 24 hours 3a (%)” value is 13.6% and the “Product distribution after 24 hours 5a (%)” value was 19.4%.

Source of the values: patent US20260176659A1, “IMPROVED METHOD FOR THE PRODUCTION OF NATURAL VANILLIN” (BASE SE, priority 2022, published 2026).
